Measured values taken from doi:10.1101/2022.07.21.500988, “Molecular insight into the enzymatic macrocyclization of multiply backbone N-methylated peptides” (bioRxiv, 2022).

T1: OphP(S580A) (Omphalotus olearius, S580A)
T1 construct: also called OphP variant S580A
T1 chain: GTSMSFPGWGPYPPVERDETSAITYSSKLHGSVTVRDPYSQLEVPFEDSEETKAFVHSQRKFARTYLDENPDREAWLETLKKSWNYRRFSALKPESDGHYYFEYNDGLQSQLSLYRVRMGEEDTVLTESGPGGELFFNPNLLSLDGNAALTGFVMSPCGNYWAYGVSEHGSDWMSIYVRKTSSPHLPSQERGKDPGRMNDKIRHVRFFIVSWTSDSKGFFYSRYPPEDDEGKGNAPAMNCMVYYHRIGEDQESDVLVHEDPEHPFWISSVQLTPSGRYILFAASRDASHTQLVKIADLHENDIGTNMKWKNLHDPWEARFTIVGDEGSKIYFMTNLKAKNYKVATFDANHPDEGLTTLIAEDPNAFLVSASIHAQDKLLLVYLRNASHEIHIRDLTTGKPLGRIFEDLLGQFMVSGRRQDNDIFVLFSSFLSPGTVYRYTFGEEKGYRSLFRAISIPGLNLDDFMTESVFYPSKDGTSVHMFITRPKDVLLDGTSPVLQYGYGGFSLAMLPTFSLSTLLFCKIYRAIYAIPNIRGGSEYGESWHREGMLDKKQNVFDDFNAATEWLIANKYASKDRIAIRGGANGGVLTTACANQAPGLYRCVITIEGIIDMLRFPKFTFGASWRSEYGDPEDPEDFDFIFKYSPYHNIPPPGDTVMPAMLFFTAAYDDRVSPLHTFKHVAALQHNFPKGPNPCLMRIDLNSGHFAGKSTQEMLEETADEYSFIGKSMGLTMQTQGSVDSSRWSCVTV


Target: T1, OphP(S580A)
Assay: crystal structure
Settings: both partners purified

| Binder | binding result |
| --- | --- |
| GFPWVIVVGVIGVIG [Oph-15mer] | binds |
| WVIVVGVIGVIGSVMSTE (also called 18mer^CF) [Oph-18mer^NL] | binds |
